This note sets out measurements from publication PMC12416549 (2024).

The labels stand for the following.
B1: K103C (designed binder)
chain: MTLQELLREEALRRAEAEAFRYALELLAEKFPEQKEYLLDLAEEIESQIRSLSGVDVEDVRKFLDKEWAWVKELLAEHPAELAEVEAARAARLAELRAEVEACVAA
B2: P32S (designed binder)
chain: MTLQELLREEALRRAEAEAFRYALELLAEKFSEQKEYLLDLAEEIESQIRSLSGVDVEDVRKFLDKEWAWVKELLAEHPAELAEVEAARAARLAELRAEVEAKVAA
B3: L82I (designed binder)
chain: MTLQELLREEALRRAEAEAFRYALELLAEKFPEQKEYLLDLAEEIESQIRSLSGVDVEDVRKFLDKEWAWVKELLAEHPAEIAEVEAARAARLAELRAEVEAKVAA
B4: L64A (designed binder)
chain: MTLQELLREEALRRAEAEAFRYALELLAEKFPEQKEYLLDLAEEIESQIRSLSGVDVEDVRKFADKEWAWVKELLAEHPAELAEVEAARAARLAELRAEVEAKVAA
B5: A83Q (designed binder)
chain: MTLQELLREEALRRAEAEAFRYALELLAEKFPEQKEYLLDLAEEIESQIRSLSGVDVEDVRKFLDKEWAWVKELLAEHPAELQEVEAARAARLAELRAEVEAKVAA
B6: E10W (designed binder)
chain: MTLQELLREWALRRAEAEAFRYALELLAEKFPEQKEYLLDLAEEIESQIRSLSGVDVEDVRKFLDKEWAWVKELLAEHPAELAEVEAARAARLAELRAEVEAKVAA
B7: V71W (designed binder)
chain: MTLQELLREEALRRAEAEAFRYALELLAEKFPEQKEYLLDLAEEIESQIRSLSGVDVEDVRKFLDKEWAWWKELLAEHPAELAEVEAARAARLAELRAEVEAKVAA
B8: P79Q (designed binder)
chain: MTLQELLREEALRRAEAEAFRYALELLAEKFPEQKEYLLDLAEEIESQIRSLSGVDVEDVRKFLDKEWAWVKELLAEHQAELAEVEAARAARLAELRAEVEAKVAA
B9: P79T (designed binder)
chain: MTLQELLREEALRRAEAEAFRYALELLAEKFPEQKEYLLDLAEEIESQIRSLSGVDVEDVRKFLDKEWAWVKELLAEHTAELAEVEAARAARLAELRAEVEAKVAA
B10: A28K (designed binder)
chain: MTLQELLREEALRRAEAEAFRYALELLKEKFPEQKEYLLDLAEEIESQIRSLSGVDVEDVRKFLDKEWAWVKELLAEHPAELAEVEAARAARLAELRAEVEAKVAA
B11: E9S (designed binder)
chain: MTLQELLRSEALRRAEAEAFRYALELLAEKFPEQKEYLLDLAEEIESQIRSLSGVDVEDVRKFLDKEWAWVKELLAEHPAELAEVEAARAARLAELRAEVEAKVAA
B12: K30F (designed binder)
chain: MTLQELLREEALRRAEAEAFRYALELLAEFFPEQKEYLLDLAEEIESQIRSLSGVDVEDVRKFLDKEWAWVKELLAEHPAELAEVEAARAARLAELRAEVEAKVAA
B13: E81V (designed binder)
chain: MTLQELLREEALRRAEAEAFRYALELLAEKFPEQKEYLLDLAEEIESQIRSLSGVDVEDVRKFLDKEWAWVKELLAEHPAVLAEVEAARAARLAELRAEVEAKVAA
B14: V57P (designed binder)
chain: MTLQELLREEALRRAEAEAFRYALELLAEKFPEQKEYLLDLAEEIESQIRSLSGVDPEDVRKFLDKEWAWVKELLAEHPAELAEVEAARAARLAELRAEVEAKVAA
B15: L24N (designed binder)
chain: MTLQELLREEALRRAEAEAFRYANELLAEKFPEQKEYLLDLAEEIESQIRSLSGVDVEDVRKFLDKEWAWVKELLAEHPAELAEVEAARAARLAELRAEVEAKVAA
B16: S53G (designed binder)
chain: MTLQELLREEALRRAEAEAFRYALELLAEKFPEQKEYLLDLAEEIESQIRSLGGVDVEDVRKFLDKEWAWVKELLAEHPAELAEVEAARAARLAELRAEVEAKVAA
B17: E44R (designed binder)
chain: MTLQELLREEALRRAEAEAFRYALELLAEKFPEQKEYLLDLAERIESQIRSLSGVDVEDVRKFLDKEWAWVKELLAEHPAELAEVEAARAARLAELRAEVEAKVAA
B18: E73M (designed binder)
chain: MTLQELLREEALRRAEAEAFRYALELLAEKFPEQKEYLLDLAEEIESQIRSLSGVDVEDVRKFLDKEWAWVKMLLAEHPAELAEVEAARAARLAELRAEVEAKVAA
B19: Q4V (designed binder)
chain: MTLVELLREEALRRAEAEAFRYALELLAEKFPEQKEYLLDLAEEIESQIRSLSGVDVEDVRKFLDKEWAWVKELLAEHPAELAEVEAARAARLAELRAEVEAKVAA
B20: L38S (designed binder)
chain: MTLQELLREEALRRAEAEAFRYALELLAEKFPEQKEYSLDLAEEIESQIRSLSGVDVEDVRKFLDKEWAWVKELLAEHPAELAEVEAARAARLAELRAEVEAKVAA
B21: A23L (designed binder)
chain: MTLQELLREEALRRAEAEAFRYLLELLAEKFPEQKEYLLDLAEEIESQIRSLSGVDVEDVRKFLDKEWAWVKELLAEHPAELAEVEAARAARLAELRAEVEAKVAA
B22: V55I (designed binder)
chain: MTLQELLREEALRRAEAEAFRYALELLAEKFPEQKEYLLDLAEEIESQIRSLSGIDVEDVRKFLDKEWAWVKELLAEHPAELAEVEAARAARLAELRAEVEAKVAA
B23: L74Y (designed binder)
chain: MTLQELLREEALRRAEAEAFRYALELLAEKFPEQKEYLLDLAEEIESQIRSLSGVDVEDVRKFLDKEWAWVKEYLAEHPAELAEVEAARAARLAELRAEVEAKVAA
B24: D56S (designed binder)
chain: MTLQELLREEALRRAEAEAFRYALELLAEKFPEQKEYLLDLAEEIESQIRSLSGVSVEDVRKFLDKEWAWVKELLAEHPAELAEVEAARAARLAELRAEVEAKVAA
B25: A88S (designed binder)
chain: MTLQELLREEALRRAEAEAFRYALELLAEKFPEQKEYLLDLAEEIESQIRSLSGVDVEDVRKFLDKEWAWVKELLAEHPAELAEVEASRAARLAELRAEVEAKVAA
B26: L74Q (designed binder)
chain: MTLQELLREEALRRAEAEAFRYALELLAEKFPEQKEYLLDLAEEIESQIRSLSGVDVEDVRKFLDKEWAWVKEQLAEHPAELAEVEAARAARLAELRAEVEAKVAA
B27: V104M (designed binder)
chain: MTLQELLREEALRRAEAEAFRYALELLAEKFPEQKEYLLDLAEEIESQIRSLSGVDVEDVRKFLDKEWAWVKELLAEHPAELAEVEAARAARLAELRAEVEAKMAA
B28: E95Y (designed binder)
chain: MTLQELLREEALRRAEAEAFRYALELLAEKFPEQKEYLLDLAEEIESQIRSLSGVDVEDVRKFLDKEWAWVKELLAEHPAELAEVEAARAARLAYLRAEVEAKVAA
B29: D40S (designed binder)
chain: MTLQELLREEALRRAEAEAFRYALELLAEKFPEQKEYLLSLAEEIESQIRSLSGVDVEDVRKFLDKEWAWVKELLAEHPAELAEVEAARAARLAELRAEVEAKVAA
B30: R13S (designed binder)
chain: MTLQELLREEALSRAEAEAFRYALELLAEKFPEQKEYLLDLAEEIESQIRSLSGVDVEDVRKFLDKEWAWVKELLAEHPAELAEVEAARAARLAELRAEVEAKVAA
B31: K35C (designed binder)
chain: MTLQELLREEALRRAEAEAFRYALELLAEKFPEQCEYLLDLAEEIESQIRSLSGVDVEDVRKFLDKEWAWVKELLAEHPAELAEVEAARAARLAELRAEVEAKVAA
B32: S53E (designed binder)
chain: MTLQELLREEALRRAEAEAFRYALELLAEKFPEQKEYLLDLAEEIESQIRSLEGVDVEDVRKFLDKEWAWVKELLAEHPAELAEVEAARAARLAELRAEVEAKVAA
B33: K66G (designed binder)
chain: MTLQELLREEALRRAEAEAFRYALELLAEKFPEQKEYLLDLAEEIESQIRSLSGVDVEDVRKFLDGEWAWVKELLAEHPAELAEVEAARAARLAELRAEVEAKVAA
B34: E43W (designed binder)
chain: MTLQELLREEALRRAEAEAFRYALELLAEKFPEQKEYLLDLAWEIESQIRSLSGVDVEDVRKFLDKEWAWVKELLAEHPAELAEVEAARAARLAELRAEVEAKVAA

In the experiment the target is T1, TNFR1 (Homo sapiens, UniProt P19438).
T1 chain: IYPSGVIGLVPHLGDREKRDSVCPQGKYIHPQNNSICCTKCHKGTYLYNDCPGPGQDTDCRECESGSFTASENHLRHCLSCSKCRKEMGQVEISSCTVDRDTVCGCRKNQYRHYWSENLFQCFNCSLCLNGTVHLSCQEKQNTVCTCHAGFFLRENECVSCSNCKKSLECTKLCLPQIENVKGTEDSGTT
The experiment is described as follows: yeast display SC50.
B1: the “apparent Kd (screen)” value was found to be 0.539 nM. As for B2, the “apparent Kd (screen)” value was 0.49 nM. Take B3: the “apparent Kd (screen)” value is 0.49 nM. Take B4: the “apparent Kd (screen)” value came to 13.8 nM. Under B5 stands 0.446 nM; under B6, 2.05 nM. As to B7, the “apparent Kd (screen)” value came out at 2.48 nM.

For the molecule B8, the “apparent Kd (screen)” value was found to be 0.593 nM. Under B9 stands 0.653 nM. In the case of B10, the “apparent Kd (screen)” value came out at 10.4 nM. For B11, the “apparent Kd (screen)” value was 0.869 nM. In the case of B12, the “apparent Kd (screen)” value is 0.539 nM. The value for B13 was 0.593 nM. The value for B14 was 1.54 nM; that for B15 was 0.405 nM; that for B16 was 2.48 nM. Under B17 stands 1.54 nM; under B18, 0.653 nM. As for B19, the “apparent Kd (screen)” value amounted to 0.49 nM. The value for B20 was 11.4 nM; that for B21 was 0.593 nM; that for B22 was 0.539 nM. B23: the “apparent Kd (screen)” value came to 0.869 nM. Under B24 stands 1.27 nM.

B25: the “apparent Kd (screen)” value amounted to 0.539 nM. Regarding B26, the “apparent Kd (screen)” value was 1.54 nM.

Take B27: the “apparent Kd (screen)” value came to 0.653 nM. The value for B28 was 0.718 nM; that for B29 was 0.539 nM; that for B30 was 0.277 nM.

In the case of B31, the “apparent Kd (screen)” value was determined as 0.446 nM. The value for B32 was 2.25 nM; that for B33 was 0.539 nM; that for B34 was 0.539 nM.
